The text below walks through data of publication doi:10.1101/2023.10.17.562808.

What all share (details): none besides dye labels, binding temperature not given
Series [1] deals with PARP2 (mouse). The series can be described thus: EMSA. (In EMSA bound probe runs differently from free probe, usually more slowly.)
Series [2] relates to PARP2 (mouse). Description: EMSA. The source holds these as a separate data set.
In series [3] the test system is PARP2 (mouse). The series can be described thus: spFRET.

Turning to NP nucleosome (603, 187 bp), the results for the K half in the series on PARP2 (mouse) [1], in the series on PARP2 (mouse) [2] and with PARP2 (mouse) [3] were 40 nM, 40 nM and 19 nM, respectively.
